Laboratory results taken from PMC9136706.
Several values for one entry are separate records, joined by “and”; a condition that tells them apart may be missing. Equal values may be shown once.

What was measured:
[1] = molecular target: DechCD40L (Dec-fused human CD40L) (bacteriophage L | human) (UniProt P29965); assay: SEC
[2] = molecular target: Expanded P22 virus-like particle (bacteriophage P22 capsid) (bacteriophage P22) (UniProt P26747); assay: SEC-MALS
[3] = molecular target: human CD40 on HEK-Blue CD40L cells (human) (UniProt P25942)
Sequence of UniProt P25942 (P25942 21-277): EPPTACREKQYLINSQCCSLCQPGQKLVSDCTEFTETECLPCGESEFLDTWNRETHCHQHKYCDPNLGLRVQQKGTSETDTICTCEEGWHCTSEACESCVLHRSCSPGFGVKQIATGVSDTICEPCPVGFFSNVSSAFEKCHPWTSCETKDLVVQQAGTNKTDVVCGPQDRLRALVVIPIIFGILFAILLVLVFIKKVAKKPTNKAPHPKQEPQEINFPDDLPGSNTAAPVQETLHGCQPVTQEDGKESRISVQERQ

Sequence of UniProt P26747 (P26747 whole entry): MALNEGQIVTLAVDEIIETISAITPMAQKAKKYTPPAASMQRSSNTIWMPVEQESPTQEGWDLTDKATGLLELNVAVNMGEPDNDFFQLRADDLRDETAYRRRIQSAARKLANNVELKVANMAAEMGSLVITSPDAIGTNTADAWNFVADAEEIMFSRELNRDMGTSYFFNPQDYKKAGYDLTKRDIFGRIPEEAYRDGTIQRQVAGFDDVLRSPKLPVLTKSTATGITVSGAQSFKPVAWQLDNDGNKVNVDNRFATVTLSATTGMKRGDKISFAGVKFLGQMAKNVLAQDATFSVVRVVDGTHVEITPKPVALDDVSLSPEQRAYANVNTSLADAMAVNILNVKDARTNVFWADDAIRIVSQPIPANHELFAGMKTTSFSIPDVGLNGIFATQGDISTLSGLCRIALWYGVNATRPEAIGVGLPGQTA

In the case of “DechCD40L (Dec-fused human CD40L) (from UniProt P29965 114-261) (ligand)”, the percent of the total peak in the shoulder multimer peak [1] is reported as 8.2% and the stoichiometry N [1] is reported as 3 and 6.

Work on “Dec (decoration protein of bacteriophage L), wild type (natural protein)” yielded a stoichiometry N (Dec per capsid) [2] of 60.

Work on “DechCD40L bound to P22 (DechCD40L-P22) (from UniProt P29965 114-261; P26747 1-430) (complex)” yielded a fold lower EC50 of the SEAP reporter than free hCD40L [3] of 53.6 fold.
